The record followed here is patent US20100119516A1 (Eli Lilly, published 2010).

Test [1] has as its target T1, soluble recombinant human TGFβRII alkaline phosphatase (TGFβRII-AP) (human, UniProt P37173 23-166).
T1 construct: also called TGFβII-AP; not shown: alkaline phosphatase fusion partner
Kind of test: blocking ELISA: TGFβRII-AP binding to coated human TGFβ3. From the text: (§1) At day 10 to 12 post-fusion, the hybridomas are screened for antibody production and specific binding activity of culture supernatants with TGFβRII protein in ELISA-based binding and blocking assays. Specifically, hybridomas producing anti-TGFβRII mAbs are first identified by detection of TGFβRII-bound antibody with a goat anti-human kappa light chain or anti-mouse IgG horse radish peroxidase (HRP) conjugated antibody according to the following procedure. Human TGFβRII-Fc or mouse TGFβRII-Fc is coated at 100 ng/well on 96 microtiter plates at 4° C. overnight. The coated plates are blocked with the blocking buffer (PBS 0.05% TWEEN® 20 containing 5% dry milk) at room temperature for 2 hours. Hybridoma supernatants or purified antibodies are diluted in PBS with 2% bovine serum albumin (BSA) and 0.05% TWEEN® 20 (ELISA buffer) and incubated in TGFβRII-coated, 96-well, microtiter plates for 30 minutes. Plates are washed with the ELISA buffer and incubated with goat anti-human kappa light chain or anti-mouse IgG-HRP conjugate for 30 minutes. TMB (3,3′,5,5′-tetra-methylbenzidine) substrate is used for color development following the manufacturer's instructions. The absorbance at 450 nanometers (nm) is read for quantification of binding activity of antibodies. For identification of hybridomas producing neutralizing anti-TGFβRII mAbs, an ELISA based blocking assay is performed according to the following procedure. TGFβ1, TGFβ2, or TGFβ3 is coated at 200 ng per well on 96-well plates, and wells are then blocked with the blocking buffer. […] The absorbance at 405 nm is read for quantification of TGFβRII-binding to TGFβ1, TGFβ2, and TGFβ3. Optical density (OD) values are read on a microtiter plate reader (Molecular Devices Corp., Sunnyvale, Calif.).
(§2) The binding and blocking activity of purified anti-TGFβRII mAbs is determined in ELISA as described in “Generation of anti-TGFβRII mAbs” above. ED₅₀ and IC₅₀ of the antibodies are analyzed using GraphPad Prism® software 3.03 (GraphPad Software Inc., San Diego, Calif.).
(In general: ELISA stands for enzyme-linked immunosorbent assay.)

For test [2], the target named is T2, native human TGFβRII expressed on the cell surface (human, UniProt P37173 23-567). Kind of test: cell-based or functional assay.
Test [3] deals with T2, native human TGFβRII expressed on the …. Kind of test: flow cytometry on MDA-MB-231 human breast carcinoma cells; MFI against isotype control. How it is done: (§3) Binding activity of anti-human TGFβRII mAb TGF1 and fluorescein isothiocyanate (FITC)-labeled goat anti-human IgG antibody may be determined by a staining assay with 293-human TGFβRII transfectant cells and human carcinoma cells. Specifically, aliquots of transfectant cells, carcinoma cells, spleen cells, or lymph node cells are harvested from subconfluent cultures and incubated with fluorescein-labeled or unlabeled primary antibodies to desired molecules in PBS with 1% BSA (staining buffer) for 1 hour on ice. A matched IgG isotype is used as a negative control. Cells are washed twice with the staining buffer and then incubated with FITC, Phycoerythrin (PE) or Alxas Red labeled species-specific secondary antibody to primary antibody (BioSource International, Camarillo, Calif.) in the buffer for 30 min on ice. Cells are washed as above and analyzed on a flow cytometer. […] The mean fluorescent intensity units (MFIU) are calculated as the mean log fluorescence multiplied by the percentage of positive population. The mean fluorescent intensity ratio (MFIR) is calculated to quantitate relative expression levels of TGFβRII in the cell lines. The MFIR is the mean fluorescence intensity (MFI) of cells stained with TGFβRII specific mAb divided by the MFI of cells stained with an isotype control antibody.

For test [4], the target named is T3, human TGFβRII-Fc (recombinant extracellular domain of human TGFβRII linked with human Fc or heavy chain … (human, UniProt P37173 23-166)).
T3 construct: not shown: human Fc or heavy chain constant region
Kind of test: SPR (BIAcore 2000), human TGFβRII ECD-Fc immobilised, room temperature. How it is done: (§4) Kinetic analyses of the mAbs are performed by immobilization of a fusion protein of recombinant extracellular domain of either mouse TGFβRII (SEQ ID NO: 51), or the extracellular domain of human TGFβRII (SEQ ID NO: 52) linked, respectively, with either mouse or human Fc or heavy chain constant region, onto a sensor surface at a concentration of from 5 to 100 nM.

Test [5] concerns the target T3, human TGFβRII-Fc (recombinant …). Kind of test: SPR (Biacore), human TGFβRII ECD-Fc immobilised, room temperature. As for the experimental part: as §4
In test [6] the target is T1, soluble recombinant human TGFβRII …. Kind of test: blocking ELISA: TGFβRII-AP binding to coated human TGFβ2.
From the text: as §1, §2

The target of test [7] is T3, human TGFβRII-Fc (recombinant …). Kind of test: binding ELISA on coated human TGFβRII-Fc (given as ED50).
From the text: as §1, §2

Test [8] concerns the target T2, native human TGFβRII expressed on the …. Kind of test: flow cytometry on 293-human TGFβRII transfectant cells; MFI against isotype control. How it is done:
as §3
For orientation: Flow cytometry measures light scatter and fluorescence of single cells or particles in a stream.

Test [9] has as its target T1, soluble recombinant human TGFβRII …. Kind of test: blocking ELISA: TGFβRII-AP binding to coated human TGFβ1.
From the text: as §1, §2

Test [10] addresses T4, mouse TGFβRII-Fc (recombinant extracellular domain of mouse TGFβRII linked with mouse Fc or heavy chain … (mouse)).
T4 construct: also called murine TGFβRII; not shown: mouse Fc or heavy chain constant region
T4 chain: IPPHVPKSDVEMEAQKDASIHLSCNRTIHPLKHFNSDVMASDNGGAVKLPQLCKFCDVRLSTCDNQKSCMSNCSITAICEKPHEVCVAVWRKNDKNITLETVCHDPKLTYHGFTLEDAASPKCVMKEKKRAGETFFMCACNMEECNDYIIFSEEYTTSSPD
Kind of test: ELISA.

As a reminder, the IC50 is the point on the concentration scale where inhibition reaches its midpoint. What is called Kd is a measure of binding affinity in units of concentration. By koff is commonly meant a measure of how fast the partners let go of each other. Broadly, the kon is the second-order rate constant of association. As usually defined, the EC50 is the midpoint of the concentration-response curve.

Numbering of substitutions follows the chain as printed.

T2 sequence (P37173 23-567): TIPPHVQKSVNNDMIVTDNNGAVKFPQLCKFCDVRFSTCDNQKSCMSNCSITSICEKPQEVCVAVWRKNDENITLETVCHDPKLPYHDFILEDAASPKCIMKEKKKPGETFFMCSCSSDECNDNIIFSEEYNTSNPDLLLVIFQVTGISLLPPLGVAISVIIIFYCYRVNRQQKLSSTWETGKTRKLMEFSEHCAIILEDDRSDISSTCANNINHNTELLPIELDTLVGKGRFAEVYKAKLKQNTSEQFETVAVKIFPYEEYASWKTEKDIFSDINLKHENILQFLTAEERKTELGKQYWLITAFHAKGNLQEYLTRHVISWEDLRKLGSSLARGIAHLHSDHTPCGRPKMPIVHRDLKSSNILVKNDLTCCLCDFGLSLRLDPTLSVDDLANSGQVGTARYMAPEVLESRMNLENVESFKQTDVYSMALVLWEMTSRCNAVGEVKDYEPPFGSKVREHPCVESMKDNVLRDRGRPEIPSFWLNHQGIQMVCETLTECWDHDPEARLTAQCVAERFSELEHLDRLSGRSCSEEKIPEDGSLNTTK
T1 sequence (P37173 23-166): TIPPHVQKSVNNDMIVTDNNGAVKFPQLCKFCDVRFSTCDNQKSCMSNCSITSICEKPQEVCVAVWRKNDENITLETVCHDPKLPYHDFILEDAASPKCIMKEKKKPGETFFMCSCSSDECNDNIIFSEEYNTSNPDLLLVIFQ
T3 sequence (P37173 23-166): as above

B1: anti-human TGFβRII mAb TGF1 (antibody, human IgG1, kappa, V domains shown)
VH: QLQVQESGPGLVKPSETLSLTCTVSGGSISNSYFSWGWIRQPPGKGLEWIGSFYYGEKTYYNPSLKSRATISIDTSKSQFSLKLSSVTAADTAVYYCPRGPTMIRGVIDSWGQGTLVTVSS
VL: EIVLTQSPATLSLSPGERATLSCRASQSVRSYLAWYQQKPGQAPRLLIYDASNRATGIPARFSGSGSGTDFTLTISSLEPEDFAVYYCQQRSNWPPTFGQGTKVEIKG
notes: Human antibody from human-immunoglobulin transgenic mice, engineered as full-length human IgG1 with kappa light chain
In the case of B1, the IC50 in [1] is 0.19 nM; in test [6], 0.54 nM; in test [9] it was 0.12 nM. Further, the “IC50 in the p-Smad2 inhibition assay (TGFβ-induced phosphorylation of Smad2, MDA-MB-231 cells, Western blot)” value in test [2] came out at 5 nM. Further, the “MFIR (mean fluorescent intensity ratio)” value in test [3] came out at 209; in [8], 46. Further, the dissociation constant (Kd) in test [4] and in test [5] was 0.011 nM throughout. In addition, in [4], the off-rate constant (koff) is 1.7e-05 s⁻¹. Moreover, the on-rate constant (kon) in test [4] was determined as 1.5e+06 M⁻¹ s⁻¹. Also, the 50% effective concentration (EC50) in test [7] came to 0.059 nM.

B2: anti-human TGFβRII mAb TGF3 (antibody, human IgG1, kappa, V domains shown)
VH: QLQLQESGPGLVKPSETLSLTCTVSGGSISSSSYSWGWIRQPPGKGLEWIGSFYYSGITYYSPSLKSRIIISEDTSKNQFSLKLSSVTAADTAVYYCASGFTMIRGALDYWGQGTLVTVSS
VL: B1 VL with Y32F
notes: Human IgG1 with kappa light chain
With B2, the IC50 was found to be 0.13 nM in [1], 0.41 nM in [6] and 0.1 nM in test [9]. Moreover, the “IC50 in the p-Smad2 inhibition assay (TGFβ-induced phosphorylation of Smad2)” value in test [2] is less than 25 nM. Also, in [10], the binding result is recorded as “binds”. The Kd in test [4] and in [5] was 0.019 nM throughout. For the same molecule, the off-rate constant (koff) in [4] is 2.7e-05 s⁻¹. Moreover, the kon in test [4] was 1.4e+06 M⁻¹ s⁻¹. Besides, in test [7], the EC50 amounted to 0.031 nM.

B3: anti-human TGFβRII mAb TGF2 (antibody, V domains shown)
VH: QVQLVQSGAAVKKPGESLKISCKGSGYRFTSYWIGWVRQMPGKGLEWMGIIYPGDSDTRYSPSFQGQVTISAGKSISTAYLQWSSLKASDTAMYYCARHGRGYNGYEGAFDIWGQGTMVTVSS
VL: DIQMTQSPSSLSASVGDRVTITCRASQGISSWLAWYQQKPEKAPKSLIYAASSLQSGVPSRFSGSGSGTDFTLTISSLQPEDFATYYCQQYNSYPWTFGQGTKVEIKG
notes: as for B2
On to B3, for which the figures for the IC50 in [1], in [6] and in test [9] were 0.25 nM, 0.42 nM and 0.19 nM, respectively. Also, in [2], the “IC50 in the p-Smad2 inhibition assay (TGFβ-induced phosphorylation of Smad2)” value was less than 25 nM. The binding result in test [10] is recorded as “binds”. Also, the equilibrium dissociation constant (Kd) in [4] and in test [5] was 0.078 nM in each case. Further, the off-rate (koff) in test [4] stood at 3.4e-05 s⁻¹. In [4], the on-rate (kon) came to 430000 M⁻¹ s⁻¹. Moreover, the 50% effective concentration (EC50) in test [7] was found to be 0.048 nM.
